Results from patent US20230303654A1 (CITY OF HOPE, published 2023).
Like-named read-outs stand apart in the source and are kept apart here.

Assays:
[1] = molecular target: T1, purified 6× His-tagged SARS-CoV-2 spike protein (ELISA coat, Example 12) (SARS-CoV-2, UniProt P0DTC2 14-1213)
[2] = molecular target: T1, purified 6× His-tagged SARS-CoV-2 spike …; remark: listed apart in the source

| Binder | EC50 [1] | EC50 [2] |
| --- | --- | --- |
| Anti-spike RBD Ab27 scFv (scFv) scFv: ELQMTQSPSSLSASVGDRVTITCRASQSISSYLNWYQQKPGKAPKLLIYAASSLQSGVPSRFSGSGSGTDFTLTISSLQPEDFATYYCQQANSFPFTFGPGTKVDIKGGSSRSSQVQLVQSGAEVKKPGASVKVSCKASGYTFTSYGISWVRQAPGQGLEWMGWVNPNGGHTGYAQKFQGRVTMTRHTATNTVYMELSSLTSDDTAVYYCARGKGYYYGMDVWGQGTTVLVSSASTKGPSV | 8.85 nM | – |
| Anti-spike RBD Ab39 scFv (scFv) scFv: ELVLTQSPGTLSLSPGERATLSCRASQSLYNNFLAWYQQKPGQAPRLLIYAASNRATGIPDRFSGSGSGTDFTLTISRLEPEDFAVYYCQQYGSSPGYTFGQGTKLEIKGGSSRSSQVQLVQSGAEVKKPGSSVKVSCKASGGTFSSYAISWVRQAPGQGLEWMGGIIPIFGTANYAQKFQGRVTITADESTSTAYMELSSLRSEDTAVYYCARTLRQYYYYGMDVWGQGTTVTVSSGSASAPTL | 4.93 nM | – |
| Anti-spike RBD Ab37 scFv (scFv) scFv: ELMLTQPPSVSVAPGQTARITCGGNNIGSKSVHWYQQKPGQAPVLVVYDDSDRPSGIPERFSGSNSGNTATLTISRVEAGDEADYYCQVWDNTLLFGGGTELTVLGGGSSRSSGVQLVESGGGLVQPGGSLRLSCSASGFTFSSYAMHWVRQAPGKGLEYVSGISSNGGGTHYADSVKGRFSISRDNSKNTLYLQMSSLRAEDTAVYYCVKDDSGSYFSLFDHWGQGTLVTVSSASTKGPSV | 5.28 nM | 5.18 nM |
